Columns and labels:
[1] = target: His-Max made in bacteria, P61244
[2] = target: T1, endogenous Omi protein precipitated from 293 cells with the anti-Omi polyclonal antibody
T1 chain: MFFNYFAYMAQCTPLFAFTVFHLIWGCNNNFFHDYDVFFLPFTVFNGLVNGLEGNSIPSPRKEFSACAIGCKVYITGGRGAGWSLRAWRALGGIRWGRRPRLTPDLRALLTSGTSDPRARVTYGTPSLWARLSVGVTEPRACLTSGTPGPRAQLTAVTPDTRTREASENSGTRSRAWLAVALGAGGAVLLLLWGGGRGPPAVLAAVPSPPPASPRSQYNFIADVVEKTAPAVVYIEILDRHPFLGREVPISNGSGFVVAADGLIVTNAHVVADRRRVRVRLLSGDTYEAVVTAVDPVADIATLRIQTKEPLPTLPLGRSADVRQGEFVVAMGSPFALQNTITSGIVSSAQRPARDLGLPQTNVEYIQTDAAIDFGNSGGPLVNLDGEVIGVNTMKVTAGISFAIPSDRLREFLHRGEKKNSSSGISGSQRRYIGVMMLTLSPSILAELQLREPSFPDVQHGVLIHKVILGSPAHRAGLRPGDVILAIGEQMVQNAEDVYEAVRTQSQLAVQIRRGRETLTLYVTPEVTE

Chain of His-Max made in bacteria, P61244 (P61244 whole entry): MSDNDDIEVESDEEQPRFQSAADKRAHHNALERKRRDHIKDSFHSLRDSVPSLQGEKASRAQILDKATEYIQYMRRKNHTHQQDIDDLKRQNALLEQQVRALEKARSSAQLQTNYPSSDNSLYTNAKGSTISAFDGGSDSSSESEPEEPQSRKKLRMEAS

B1: Mxi2 as a hemaglutinin epitope-tagged fusion (Mxi2-HA), expressed in 293 cells (protein)
chain: MSQERPTFYRQELNKTIWEVPERYQNLSPVGSGAYGSVCAAFDTKTGLRVAVKKLSRPFQSIIHAKRTYRELRLLKHMKHENVIGLLDVFTPARSLEEFNDVYLVTHLMGADLNNIVKCQKLTDDHVQFLIYQILRGLKYIHSADIIHRDLKPSNLAVNEDCELKILDFGLARHTDDEMTGYVATRWYRAPEIMLNWMHYNQTVDIWSVGCIMAELLTGRTLFPGTDHIDQLKLILRLVGTPGAELLKKISSESARNYIQSLTQMPKMNFANVFIGANPLGKLTIYPHLMDIELVMI
phosphorylation of Max by isolated HA-Mxi2 (autoradiograph) [1]: The autoradiograph shows Omi as well as Max protein was phosphorylated
phosphorylation of Max in the same kinase reaction [1]: Max was also phopshorylated very efficiently
phosphorylation of Omi by isolated HA-Mxi2 (autoradiograph) [2]: The autoradiograph shows Omi as well as Max protein was phosphorylated
phosphorylation of Omi in a kinase reaction on the immunoprecipitated Omi/Mxi2 complex ([gamma-32P]ATP, autoradiography) [2]: Phosphorylated Omi is shown as a doublet of phosphorylated polypeptides with a molecular weight of 57-59 kD
proteolytic activity of Omi (colorimetric assay, absorbance at 450 nm) [2]: the proteolytic activity of Omi increases dramatically when phosphorylated by Mxi2

Reference: patent US20030157685
